Here are results for two molecules from PMC11436793.

A word on the Kd: it is a measure of binding affinity in units of concentration. Lower therefore signals tighter binding.

This data set has as its target T1, SBP-UNK ZnF1-6 (30-357) (human, UniProt Q9C0B0 30-357).
T1 sequence: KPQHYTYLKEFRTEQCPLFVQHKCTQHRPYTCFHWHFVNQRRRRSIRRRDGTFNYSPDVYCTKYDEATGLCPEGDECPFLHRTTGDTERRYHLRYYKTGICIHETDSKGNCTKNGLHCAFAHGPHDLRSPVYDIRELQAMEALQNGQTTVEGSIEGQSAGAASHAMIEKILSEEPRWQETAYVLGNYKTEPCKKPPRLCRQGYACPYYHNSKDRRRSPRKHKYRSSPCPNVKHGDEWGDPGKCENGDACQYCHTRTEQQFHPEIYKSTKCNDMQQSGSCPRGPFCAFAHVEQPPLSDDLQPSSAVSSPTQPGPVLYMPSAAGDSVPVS
In words: fluorescence polarization.

Molecule UUCAUCGCAUUAGACAUUUU (ssRNA) [Chi58-67 gtpb4 FP RNA] yielded a Kd of 305 nM.
As for UACAUCGCAUUAGACAUUUU (ssRNA) [Human GTPB4 FP RNA], the figure is 263 nM.
